Measurements: article PMC3883222
Read-outs that look alike come from different tables or passages of the source.

What was measured:
Assay in all cases: single-molecule fluorescence in zero-mode waveguides
[1] = target: Escherichia coli 70S ribosome (Cy3B-30S and BHQ-50S subunits) on biotinylated 6(FK) mRNA (E. coli) (UniProt P0AG67)
[2] = target: Escherichia coli 70S ribosome (Cy3B-30S and BHQ-50S subunits) on biotinylated 6(FK) mRNA (E. coli) (UniProt P0AG67); remark: listed apart in the source
[3] = target: Escherichia coli 70S ribosome (Cy3B-30S and BHQ-50S subunits) on biotinylated 6(FK) mRNA (E. coli) (UniProt P0AG67); remark: listed apart in the source

Cy5-labeled single-cysteine elongation factor G (EF-G S73C on a cysteine-free background) (from UniProt P0A6M8 1-704) (enzyme)
arrival time against that of EF-G-GDPNP [1]: 150 % longer
bound-state lifetime [1]: 332 ms
dwell time [2]: 192 ms
arrival time against that of EF-G-GDPNP [3]: 150 % longer
bound-state lifetime [3]: 191 ms
dwell time [3]: 1.64 s
dwell time (events with counter-rotation) [3]: 122 ms
dwell time (sampling of the non-rotated state) [3]: 64.2 ms
dwell time (sampling of the rotated state, no conformational change) [3]: 75.8 ms
dwell time after the counter-rotation [3]: 10 ms
dwell time with fusidic acid [3]: 8.4 s
koff [3]: 13.2 s⁻¹
mean dwell time with spectinomycin (sampling of the rotated state) [3]: 351 ms
mean dwell time with spectinomycin (successful translocation events) [3]: 326 ms
mean lifetime of the complex [3]: 1.62 s
